Laboratory results reported in US20210107998A1 (Boehringer Ingelheim, published 2021).

T1: Recombinant human IL-23 (human, UniProt P29460 23-328)
T1 sequence 1: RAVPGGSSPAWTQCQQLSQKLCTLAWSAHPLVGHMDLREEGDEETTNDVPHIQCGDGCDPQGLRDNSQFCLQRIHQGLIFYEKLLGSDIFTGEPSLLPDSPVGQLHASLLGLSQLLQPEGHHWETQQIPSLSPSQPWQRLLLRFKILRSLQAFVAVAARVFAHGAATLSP
T1 sequence 2: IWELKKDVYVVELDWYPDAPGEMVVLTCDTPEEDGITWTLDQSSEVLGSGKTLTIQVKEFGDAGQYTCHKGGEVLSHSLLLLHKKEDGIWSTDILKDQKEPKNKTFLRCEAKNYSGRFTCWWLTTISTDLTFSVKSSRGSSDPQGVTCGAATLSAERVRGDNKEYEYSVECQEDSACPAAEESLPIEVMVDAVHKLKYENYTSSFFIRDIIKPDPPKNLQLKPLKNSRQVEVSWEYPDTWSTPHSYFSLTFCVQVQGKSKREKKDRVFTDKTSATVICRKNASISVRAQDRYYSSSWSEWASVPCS

T2: Linked human IL-23 (Boehringer Ingelheim Pharmaceuticals, Inc.) (human, UniProt P29460 23-328)
T2 sequence 1: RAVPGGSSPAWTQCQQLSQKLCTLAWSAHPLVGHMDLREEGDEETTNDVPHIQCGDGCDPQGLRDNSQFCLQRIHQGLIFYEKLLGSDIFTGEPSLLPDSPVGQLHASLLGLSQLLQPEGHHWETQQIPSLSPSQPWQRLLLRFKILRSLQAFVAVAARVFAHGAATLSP
T2 sequence 2: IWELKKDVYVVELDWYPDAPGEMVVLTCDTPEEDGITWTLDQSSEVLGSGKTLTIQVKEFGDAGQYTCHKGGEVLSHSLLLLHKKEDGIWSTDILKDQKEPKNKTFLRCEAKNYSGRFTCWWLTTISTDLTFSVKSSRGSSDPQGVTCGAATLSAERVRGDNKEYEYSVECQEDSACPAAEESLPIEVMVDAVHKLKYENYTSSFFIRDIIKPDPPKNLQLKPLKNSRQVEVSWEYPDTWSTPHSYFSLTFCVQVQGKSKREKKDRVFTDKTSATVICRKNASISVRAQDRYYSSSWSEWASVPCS


Legend:
Recombinant human IL-23 [1] = target: T1, Recombinant human IL-23; assay: cell-based or functional assay
Recombinant human IL-23 [2] = target: T1, Recombinant human IL-23; assay: BLI (Octet RED96, streptavidin tips), compound incubated 48 h at 37 C in whole blood vs kinetic buffer
Description: (§1) A whole blood interference assay was developed on an Octet RED96 to detect the effects of non-specific binding or off-target binding for compounds in the presence of whole blood (WB). The compound solutions in whole blood and 1× kinetic running buffer (1×kb) were incubated at a temperature of 37° C. for 48 hours. Kinetic measurements for the incubated compound samples were performed with an Octet RED96 equipped with streptavidin (SA) biosensor tips (ForteBio, Menlo Park, Calif.) at 27° C. The ratio of the on-rates/binding signals in buffer and whole blood were reported. A ratio <2 was considered to show no interference.

human BAFF [3] = target: T3, human BAFF (human, UniProt Q9Y275 134-285, limits assumed); assay: as above
T3 construct: also called hu BAFF; hBAFF
Description: as §1

cynomolgus BAFF = target: T4, cynomolgus BAFF (cynomolgus, UniProt A0A2K5V2X4 134-285); assay: SPR (ProteOn XPR36), compound captured on goat anti-human IgG Fc, antigen injected
T4 construct: construct not described
Description: (§2) SPR experiments were performed on a ProteOn XPR36 instrument (Bio Rad). A GLM chip was preconditioned with sequential injections of 60 sec of 0.5% SDS, 50 mM NaOH, and 100 mM HCl at a flow rate of 30 μl/min both vertical and horizontal directions.
(§3) The preconditioned GLM chip was then activated by an injection of EDC (76.7 mg/ml) and sulfo-NHS (21.7 mg/ml) mixture with ratio of 1:1 in 6 horizontal channels. Goat-anti-human IgG (GAHA) Fc gamma (Invitrogen) at a concentration of 30 μg/ml in 10 mM, pH 5.0 sodium acetate buffer was immobilized to 8,000 resonance units on the activated GLM chip in 6 horizontal channels. The chip was finally deactivated with 1 M ethanolamine HCl in 6 horizontal channels. The prepared GAHA chip was rotated to vertical direction to capture test compounds, over 5 vertical channels and the last channel was used as a column reference. The captured chip was then rotated again to the horizontal direction for binding. […] The dissociation was allowed for 2 hour. The GAHA surface was regenerated using short pulse injection (18 seconds) of 0.85% phosphoric acid (Bio Rad) at a flow rate of 100 μl/min both horizontal and vertical directions after 10 min association and 2 hr dissociation. The regenerated GAHA was ready for another binding cycle.

[4] = target: T2, Linked human IL-23 (Boehringer …); assay: as above
Description: as §2, §3

human BAFF [5] = target: T3, human BAFF; assay: as above
Description: as §2, §3

cynomolgus IL-23 [6] = target: T5, cynomolgus IL-23 (cynomolgus, UniProt H6WS56 20-189); assay: as above
Description: as §2, §3

[7] = target: Recombinant human BAFF trimer (Boehringer Ingelheim Pharmaceuticals, Inc.) (human, UniProt Q9Y275 134-285, limits assumed); assay: cell-based or functional assay
[8] = target: Recombinant human BAFF 60mer (Boehringer Ingelheim Pharmaceuticals, Inc.) (human, UniProt Q9Y275 134-285, limits assumed); assay: cell-based or functional assay
Recombinant human IL-23 [9] = target: T1, Recombinant human IL-23; assay: cell-based or functional assay; remark: listed apart in the source
cynomolgus IL-23 [10] = target: T5, cynomolgus IL-23; assay: cell-based or functional assay

IC50, STAT3-luciferase reporter in DB lymphoblast B cells (Recombinant human IL-23 [1]) [nM] | IC90, STAT3-luciferase reporter in DB lymphoblast B cells (Recombinant human IL-23 [1]) [nM] | Ratio of binding signal in WB/kinetic buffer (Recombinant human IL-23 [2]) | Ratio of binding signal in WB/kinetic buffer (human BAFF [3]) | Kd (cynomolgus BAFF) [nM] | Kd [4] [nM] | Kd (human BAFF [5]) [nM] | Kd (cynomolgus IL-23 [6]) [nM] | IC50, NFkB luciferase reporter, human BAFFR-CHO cells [7] [nM] | IC90, NFkB luciferase reporter, human BAFFR-CHO cells [7] [nM] | IC50, NFkB luciferase reporter, human BAFFR-CHO cells [8] [nM] | IC90, NFkB luciferase reporter, human BAFFR-CHO cells [8] [nM] | IC50, IL-23-induced mouse IL-17 release from mouse splenocytes (Recombinant human IL-23 [9]) [nM] | IC90, IL-23-induced mouse IL-17 release from mouse splenocytes (Recombinant human IL-23 [9]) [nM] | IC50, IL-23-induced mouse IL-17 release from mouse splenocytes (cynomolgus IL-23 [10]) [nM] | IC90, IL-23-induced mouse IL-17 release from mouse splenocytes (cynomolgus IL-23 [10]) [nM] | Binder
0.189 | 2.33 | 1.3 | 1.1 | < 0.015 | < 0.015 | < 0.015 | < 0.015 | 0.035 | 0.11 | 0.006 | 0.014 | 0.133 | 0.761 | 0.11 | 0.88 | Compound C (bispecific antibody, human IgG1, kappa, L234A L235A, Tetravalent format) chain 1: DIQMTQSPSSLSASVGDRVTITCKASRDVAIAVAWYQQKPGKVPKLLIYWASTRHTGVPSRFSGSGSRTDFTLTISSLQPEDVADYFCHQYSSYPFTFGSGTKLEIKGGGSGGGGQVQLVQSGAEVKKPGASVKVSCKASGYSFSTFFIHWVRQRPGQGLEWIGRIDPNSGATKYNEKFESKVTLTRDTSISTAYMELSRLRSDDTAVYYCARGEDLLIRTDALDYWGQGTSVTVSSLGGGSGASTKGPSVFPLAPSSKSTSGGTAALGCLVKDYFPEPVTVSWNSGALTSGVHTFPAVLQSSGLYSLSSVVTVPSSSLGTQTYICNVNHKPSNTKVDKRVEPKSCDKTHTCPPCPAPEAAGGPSVFLFPPKPKDTLYITREPEVTCVVVDVSHEDPEVKFNWYVDGVEVHNAKTKPREEQYNSTYRVVSVLTVLHQDWLNGKEYKCKVSNKALPAPIEKTISKAKGQPREPQVYTLPPSREEMTKNQVSLTCLVKGFYPSDIAVEWESNGQPENNYKTTPPVLDSDGSFFLYSKLTVDKSRWQQGNVFSCSVMHEALHNHYTQKSLSLSPG chain 2: DIQMTQSPSSLSASVGDRVSITCKASQNAGIDVAWFQQKPGKAPKLLIYSKSNRYTGVPSRFSGSGSGTDFTLTISSLQPEDFADYYCLQYRSYPRTFGGGTKLEIKGGGSGGGGQVQLVQSGAEVKKPGSSVKVSCKASGYTFTDQTIHWMRQAPGQGLEWIGYIYPRDDSPKYNENFKGKVTITADKSTSTAYMELSSLRSEDTAVYYCAIPDRSGYAWFIYWGQGTLVTVSSLGGGSGRTVAAPSVFIFPPSDEQLKSGTASVVCLLNNFYPREAKVQWKVDNALQSGNSQESVTEQDSKDSTYSLSSTLTLSKADYEKHKVYACEVTHQGLSSPVTKSFNRGEC
 |  | 1.2 | 1 | < 0.015 | < 0.015 | < 0.015 | < 0.015 | 0.072 | 0.293 | 1.3 | 7.39 |  |  |  |  | Compound F (bispecific antibody, human IgG4 S228P, kappa, Large chain: IL23A(1) VL - BAFF(1) VH - LGGGSG - IgG4-Pro-YTE; small chain: BAFF(1) VL - IL23A(1) VH - LGGGSG - CL) chain 1: DIQMTQSPSSLSASVGDRVTITCKASRDVAIAVAWYQQKPGKVPKLLIYWASTRHTGVPSRFSGSGSRTDFTLTISSLQPEDVADYFCHQYSSYPFTFGSGTKLEIKGGGSGGGGQVQLQQSGAEVKKPGSSVRVSCKASGGTFNNNAINWVRQAPGQGLEWMGGIIPMFGTAKYSQNFQGRVAITADESTGTASMELSSLRSEDTAVYYCARSRDLLLFPHHALSPWGRGTMVTVSSLGGGSGASTKGPSVFPLAPCSRSTSESTAALGCLVKDYFPEPVTVSWNSGALTSGVHTFPAVLQSSGLYSLSSVVTVPSSSLGTKTYTCNVDHKPSNTKVDKRVESKYGPPCPPCPAPEFLGGPSVFLFPPKPKDTLYITREPEVTCVVVDVSQEDPEVQFNWYVDGVEVHNAKTKPREEQFNSTYRVVSVLTVLHQDWLNGKEYKCKVSNKGLPSSIEKTISKAKGQPREPQVYTLPPSQEEMTKNQVSLTCLVKGFYPSDIAVEWESNGQPENNYKTTPPVLDSDGSFFLYSRLTVDKSRWQEGNVFSCSVMHEALHNHYTQKSLSLSLG chain 2: SSELTQDPAVSVALGQTVRVTCQGDSLRSYYASWYQQKPGQAPVLVIYGKNNRPSGIPDRFSGSSSGNTASLTITGAQAEDEADYYCSSRDSSGNHWVFGGGTELTVLGGGSGGGGQVQLVQSGAEVKKPGSSVKVSCKASGYTFTDQTIHWMRQAPGQGLEWIGYIYPRDDSPKYNENFKGKVTITADKSTSTAYMELSSLRSEDTAVYYCAIPDRSGYAWFIYWGQGTLVTVSSLGGGSGRTVAAPSVFIFPPSDEQLKSGTASVVCLLNNFYPREAKVQWKVDNALQSGNSQESVTEQDSKDSTYSLSSTLTLSKADYEKHKVYACEVTHQGLSSPVTKSFNRGEC
 |  | 1.1 | 1 | < 0.015 | < 0.015 | < 0.015 | < 0.015 |  |  |  |  |  |  |  |  | Compound E (bispecific antibody, human IgG1, kappa, L234A L235A) chain 1: SSELTQDPAVSVALGQTVRVTCQGDSLRSYYASWYQQKPGQAPVLVIYGKNNRPSGIPDRFSGSSSGNTASLTITGAQAEDEADYYCSSRDSSGNHWVFGGGTELTVLGGGSGGGGQVQLVQSGAEVKKPGSSVKVSCKASGYTFTDQTIHWMRQAPGQGLEWIGYIYPRDDSPKYNENFKGKVTITADKSTSTAYMELSSLRSEDTAVYYCAIPDRSGYAWFIYWGQGTLVTVSSLGGGSGASTKGPSVFPLAPSSKSTSGGTAALGCLVKDYFPEPVTVSWNSGALTSGVHTFPAVLQSSGLYSLSSVVTVPSSSLGTQTYICNVNHKPSNTKVDKRVEPKSCDKTHTCPPCPAPEAAGGPSVFLFPPKPKDTLYITREPEVTCVVVDVSHEDPEVKFNWYVDGVEVHNAKTKPREEQYNSTYRVVSVLTVLHQDWLNGKEYKCKVSNKALPAPIEKTISKAKGQPREPQVYTLPPSREEMTKNQVSLTCLVKGFYPSDIAVEWESNGQPENNYKTTPPVLDSDGSFFLYSKLTVDKSRWQQGNVFSCSVMHEALHNHYTQKSLSLSPG chain 2: DIQMTQSPSSLSASVGDRVTITCKASRDVAIAVAWYQQKPGKVPKLLIYWASTRHTGVPSRFSGSGSRTDFTLTISSLQPEDVADYFCHQYSSYPFTFGSGTKLEIKGGGSGGGGQVQLQQSGAEVKKPGSSVRVSCKASGGTFNNNAINWVRQAPGQGLEWMGGIIPMFGTAKYSQNFQGRVAITADESTGTASMELSSLRSEDTAVYYCARSRDLLLFPHHALSPWGRGTMVTVSSLGGGSGRTVAAPSVFIFPPSDEQLKSGTASVVCLLNNFYPREAKVQWKVDNALQSGNSQESVTEQDSKDSTYSLSSTLTLSKADYEKHKVYACEVTHQGLSSPVTKSFNRGEC
